This note sets out measurements from patent EP4725967A1 (Nanjing Probio Biotech Co., Ltd., dated 2026).

The target of assay [1] is T1, human CCR8 (human, UniProt P51685 1-355).
T1 construct: whole, on cells; also called hu-CCR8; CC chemokine receptor 8
As to the kind of experiment: flow cytometry, hybridoma supernatant on HEK293/hu-CCR8 cells. For orientation: A flow cytometer gives signals particle by particle.

In assay [2] the target is T1, human CCR8. As to the kind of experiment: flow cytometry on HEK293/hu-CCR8 cells, chimeric antibody (FIG. 1A).
In assay [3] the target is T1, human CCR8. As to the kind of experiment: flow cytometry on HEK293/hu-CCR8 cells (FIG. 5A).
Assay [4] addresses T1, human CCR8. As to the kind of experiment: flow cytometry on HEK293/hu-CCR8 cells, chimeric antibody (FIG. 1B).

T1 sequence (P51685 whole entry): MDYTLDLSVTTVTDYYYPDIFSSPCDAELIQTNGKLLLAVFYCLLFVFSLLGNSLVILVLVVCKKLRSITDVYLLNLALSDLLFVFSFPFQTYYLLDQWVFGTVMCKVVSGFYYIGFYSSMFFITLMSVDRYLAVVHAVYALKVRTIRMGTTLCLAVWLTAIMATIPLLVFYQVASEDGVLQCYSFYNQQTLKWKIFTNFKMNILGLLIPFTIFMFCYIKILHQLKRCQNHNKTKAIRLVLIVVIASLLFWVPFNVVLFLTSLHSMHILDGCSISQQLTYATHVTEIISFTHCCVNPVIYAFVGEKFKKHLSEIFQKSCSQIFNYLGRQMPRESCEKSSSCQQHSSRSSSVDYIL

B1: antibody produced by monoclonal clone 154G7C3 (murine, hybridoma) (antibody, V domains shown)
VH: QVQLQQSGAELVRPGASVTLSCKTSGYTFTDFEMHWVKQTPVHGLEWIGAFDPETGGTAYNQKFKGKAILTADKSSSTAYMELRSLTSEDSAVYYCTGRLRRHFDSWGQGTTLTVSS
VL: DVVMTQTPLSLPVSLGDQASISCRSSQSLVHSYGNTYLHWYLQKPGQSPKLLIYKVSNRFSGVPDRFSGSGSGTDFTLKISRVEAEDLGVYFCSQSTHVPFTFGSGTKLEIK
notes: Mouse antibody in hybridoma supernatant; Taking 27/28 as murine rests only on the order of listing
With B1, the binding result in assay [1] is “binds”.

B2: chimeric antibody 154G7C3 (antibody, human IgG1, kappa, V domains shown)
VH: QVQLQQSGAELVRPGASVTLSCKTSGYTFTDFEMHWVKQTPVHGLEWIGAFDPETGGTAYNQKFKGKAILTADKSSSTAYMELRSLTSEDSAVYYCTGRLRRHFDSWGQGTTLTVSS
VL: DVVMTQTPLSLPVSLGDQASISCRSSQSLVHSYGNTYLHWYLQKPGQSPKLLIYKVSNRFSGVPDRFSGSGSGTDFTLKISRVEAEDLGVYFCSQSTHVPFTFGSGTKLEIKR
notes: Murine variable regions on human IgG1/kappa
B2: the binding result in assay [2] was “binds”.

B3: antibody produced by monoclonal clone 117G9F9 (murine, hybridoma) (antibody, V domains shown)
VH: EVQLVESGGGLVQPKGSLKLSCAASGFSFNTYAMNWVRQAPGKGLEWVARIRSKSNYYATYYADSVKDRFTISRDDSESMLYLQMNNLKTEDTAMYYCVRGGNSYGSSYFDYWGQGTTLTVSS
VL: DIVMTQAAPSVPVTPGESVSISCRSSKSLLHRNGNTYLYWFLQRPGQSPQLLIYRMSNLASGVPDRFSGSGSGTAFTLRISRLEAEDVGVYYCMQHLEYPFTFGAGTKLELK
notes: Mouse antibody in hybridoma supernatant; Taking 31/32 as murine rests only on the order of listing
B3: the binding result in assay [1] is reported as “binds”.

B4: humanized antibody 154G7C3-VH1.1-VL2 (antibody, human IgG1, kappa, V domains shown)
VH: QVQLVQSGAEVKKPGASVKVSCKVSGYTFTDFEMHWVRQAPGKGLEWIGAFDPETGGTAYNQKFKGRVTMTEDTSTDTAYMELSSLRSEDTAVYYCTGRLRRHFDSWGQGTLVTVSS
VL: DIVMTQSPLSLPVTPGEPASISCRSSQSLVHSYGNTYLHWYLQKPGQSPQLLIYKVSNRFSGVPDRFSGSGSGTDFTLKISRVEAEDVGVYYCSQSTHVPFTFGQGTKLEIKR
notes: Human IgG1/kappa
In the case of B4, the binding result in assay [3] is reported as “binds”.

B5: humanized antibody 117G9F9-VH2.1-VL1 (antibody, human IgG1, kappa, V domains shown)
VH: EVQLVESGGGLVKPGGSLRLSCAASGFSFNTYAMNWVRQAPGKGLEWVGRIRSKSNYYATYYADSVKDRFTISRDDSKNTLYLQMNSLKTEDTAVYYCVRGGNSYGSSYFDYWGQGTLVTVSS
VL: DIVMTQSPLSLPVTPGEPASISCRSSKSLLHRNGNTYLYWYLQKPGQSPQLLIYRMSNLASGVPDRFSGSGSGTDFTLKISRVEAEDVGVYYCMQHLEYPFTFGQGTKLEIKR
notes: Human IgG1/kappa
With B5, the binding result in assay [3] is recorded as “binds”.

B6: chimeric antibody 224E9A3 (antibody, human IgG1, kappa, V domains shown)
VH: EVQLVESGGGLVQPKGSLKLSCAASGFTFNTYAMYWVCQAPGKGLEWVARIRSKSNNYATYYADSVKDRFTISRDDSQSMLYLQMNNLKTEDTAMYYCVRGGRGNYLYAMDYWGQGTSVTVSS
VL: DIVMTQAAPSVPVTPGESVSISCRSSKSLLHSNGNTYLYWFLQRPGQSPQLLIYRMSNLASGVPDRFSGSGSGSAFTLRISRVEAEDVGVYYCMQHLEYPFTFGSGTKLEIKR
notes: as for B2
Turning to B6, the binding result in assay [4] is given as “binds”.

B7: chimeric antibody 117G9F9 (antibody, human IgG1, kappa, V domains shown)
VH: EVQLVESGGGLVQPKGSLKLSCAASGFSFNTYAMNWVRQAPGKGLEWVARIRSKSNYYATYYADSVKDRFTISRDDSESMLYLQMNNLKTEDTAMYYCVRGGNSYGSSYFDYWGQGTTLTVSS
VL: DIVMTQAAPSVPVTPGESVSISCRSSKSLLHRNGNTYLYWFLQRPGQSPQLLIYRMSNLASGVPDRFSGSGSGTAFTLRISRLEAEDVGVYYCMQHLEYPFTFGAGTKLELKR
notes: as for B2
For the molecule B7, in assay [2], the binding result is given as “binds”.

B8: antibody produced by monoclonal clone 224E9A3 (murine, hybridoma) (antibody, V domains shown)
VH: EVQLVESGGGLVQPKGSLKLSCAASGFTFNTYAMYWVCQAPGKGLEWVARIRSKSNNYATYYADSVKDRFTISRDDSQSMLYLQMNNLKTEDTAMYYCVRGGRGNYLYAMDYWGQGTSVTVSS
VL: DIVMTQAAPSVPVTPGESVSISCRSSKSLLHSNGNTYLYWFLQRPGQSPQLLIYRMSNLASGVPDRFSGSGSGSAFTLRISRVEAEDVGVYYCMQHLEYPFTFGSGTKLEIK
notes: Mouse antibody in hybridoma supernatant
For B8, the binding result in assay [1] is given as “binds”.
